Test results published in publication PMC3010429.

Target: hMutSα (hMSH2-hMSH6) WT recombinant (Homo sapiens, UniProt P43246;P52701 1-934;1-1360)
Assay: EMSA, supershift

Sequence of hMutSα (hMSH2-hMSH6) WT recombinant (P43246 whole entry, chain 1 of 2): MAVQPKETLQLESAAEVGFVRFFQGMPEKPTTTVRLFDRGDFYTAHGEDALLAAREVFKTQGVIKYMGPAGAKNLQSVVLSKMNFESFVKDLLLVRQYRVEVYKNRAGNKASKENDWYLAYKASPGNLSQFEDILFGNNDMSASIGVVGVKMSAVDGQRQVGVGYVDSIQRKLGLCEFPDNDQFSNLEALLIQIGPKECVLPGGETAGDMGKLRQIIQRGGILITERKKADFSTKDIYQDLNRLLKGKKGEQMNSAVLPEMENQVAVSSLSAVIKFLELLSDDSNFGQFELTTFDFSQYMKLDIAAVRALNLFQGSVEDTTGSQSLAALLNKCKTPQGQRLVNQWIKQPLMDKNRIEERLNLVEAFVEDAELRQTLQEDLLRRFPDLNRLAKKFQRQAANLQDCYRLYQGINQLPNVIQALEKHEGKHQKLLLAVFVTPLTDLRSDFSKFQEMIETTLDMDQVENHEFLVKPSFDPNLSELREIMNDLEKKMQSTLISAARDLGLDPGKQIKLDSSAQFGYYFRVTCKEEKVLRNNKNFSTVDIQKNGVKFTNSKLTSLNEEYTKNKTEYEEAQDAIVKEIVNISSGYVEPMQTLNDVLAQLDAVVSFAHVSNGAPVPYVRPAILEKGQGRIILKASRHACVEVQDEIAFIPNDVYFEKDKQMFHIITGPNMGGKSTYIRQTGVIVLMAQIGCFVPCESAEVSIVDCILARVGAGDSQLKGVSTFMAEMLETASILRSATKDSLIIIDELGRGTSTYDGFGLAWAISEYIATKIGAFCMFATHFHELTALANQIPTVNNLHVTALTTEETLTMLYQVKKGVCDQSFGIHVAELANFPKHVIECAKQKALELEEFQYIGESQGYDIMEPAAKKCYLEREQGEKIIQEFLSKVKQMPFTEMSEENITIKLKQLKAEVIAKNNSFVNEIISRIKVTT
Sequence of hMutSα (hMSH2-hMSH6) WT recombinant (P52701 whole entry, chain 2 of 2): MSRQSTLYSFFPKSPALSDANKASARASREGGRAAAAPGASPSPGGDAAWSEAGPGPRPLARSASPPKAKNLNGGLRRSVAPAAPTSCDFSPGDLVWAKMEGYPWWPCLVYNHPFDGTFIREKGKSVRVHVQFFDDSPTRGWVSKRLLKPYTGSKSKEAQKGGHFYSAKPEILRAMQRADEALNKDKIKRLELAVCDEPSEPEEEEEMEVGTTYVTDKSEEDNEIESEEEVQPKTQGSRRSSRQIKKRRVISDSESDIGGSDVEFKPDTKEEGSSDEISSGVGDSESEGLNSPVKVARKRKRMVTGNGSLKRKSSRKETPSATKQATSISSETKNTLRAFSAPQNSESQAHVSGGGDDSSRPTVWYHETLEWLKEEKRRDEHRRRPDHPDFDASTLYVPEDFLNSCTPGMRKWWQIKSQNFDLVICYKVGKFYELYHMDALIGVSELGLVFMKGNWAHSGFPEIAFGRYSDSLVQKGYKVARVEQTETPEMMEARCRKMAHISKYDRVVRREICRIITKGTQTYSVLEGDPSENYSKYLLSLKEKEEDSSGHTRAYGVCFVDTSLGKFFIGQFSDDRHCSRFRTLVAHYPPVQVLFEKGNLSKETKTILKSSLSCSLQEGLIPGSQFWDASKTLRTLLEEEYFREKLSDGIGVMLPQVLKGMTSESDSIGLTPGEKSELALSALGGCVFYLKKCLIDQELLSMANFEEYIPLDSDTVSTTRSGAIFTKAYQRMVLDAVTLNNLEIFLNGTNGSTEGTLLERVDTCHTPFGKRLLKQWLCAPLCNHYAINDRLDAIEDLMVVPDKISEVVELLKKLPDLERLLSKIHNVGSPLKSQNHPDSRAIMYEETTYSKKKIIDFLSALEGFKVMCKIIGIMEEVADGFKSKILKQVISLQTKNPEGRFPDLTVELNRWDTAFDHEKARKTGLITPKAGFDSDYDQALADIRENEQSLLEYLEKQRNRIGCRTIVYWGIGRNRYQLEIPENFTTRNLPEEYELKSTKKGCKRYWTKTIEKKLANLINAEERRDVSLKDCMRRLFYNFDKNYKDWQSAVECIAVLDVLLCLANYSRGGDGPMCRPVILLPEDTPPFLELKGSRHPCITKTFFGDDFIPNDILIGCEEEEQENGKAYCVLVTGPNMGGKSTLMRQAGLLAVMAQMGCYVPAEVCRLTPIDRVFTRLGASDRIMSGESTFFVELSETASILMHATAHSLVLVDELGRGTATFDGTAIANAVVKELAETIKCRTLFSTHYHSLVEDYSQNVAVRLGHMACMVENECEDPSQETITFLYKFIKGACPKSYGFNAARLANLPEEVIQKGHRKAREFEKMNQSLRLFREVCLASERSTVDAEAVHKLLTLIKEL

B1: G:T 69mer (dsDNA)
DNA 1: AATTCACGGAATATAAGCTGGTGGTGGTGGGCGCCGGCGGTTGGGCAAGAGTGCGCTGACCATCCAGG
DNA 2: CCTGGATGGTCAGCGCACTCTTGCCCAACCGTCGGCGCCCACCACCACCAGCTTATATTCCGTGAATT
binding result: binds
